Details in all cases: both partners purified
The target of assay [1] is T1, Full-length STAT1 protein (unphosphorylated, U-STAT1) (UniProt P42224 1-750).
T1 construct: also called STAT1 FL
T1 sequence (looked up): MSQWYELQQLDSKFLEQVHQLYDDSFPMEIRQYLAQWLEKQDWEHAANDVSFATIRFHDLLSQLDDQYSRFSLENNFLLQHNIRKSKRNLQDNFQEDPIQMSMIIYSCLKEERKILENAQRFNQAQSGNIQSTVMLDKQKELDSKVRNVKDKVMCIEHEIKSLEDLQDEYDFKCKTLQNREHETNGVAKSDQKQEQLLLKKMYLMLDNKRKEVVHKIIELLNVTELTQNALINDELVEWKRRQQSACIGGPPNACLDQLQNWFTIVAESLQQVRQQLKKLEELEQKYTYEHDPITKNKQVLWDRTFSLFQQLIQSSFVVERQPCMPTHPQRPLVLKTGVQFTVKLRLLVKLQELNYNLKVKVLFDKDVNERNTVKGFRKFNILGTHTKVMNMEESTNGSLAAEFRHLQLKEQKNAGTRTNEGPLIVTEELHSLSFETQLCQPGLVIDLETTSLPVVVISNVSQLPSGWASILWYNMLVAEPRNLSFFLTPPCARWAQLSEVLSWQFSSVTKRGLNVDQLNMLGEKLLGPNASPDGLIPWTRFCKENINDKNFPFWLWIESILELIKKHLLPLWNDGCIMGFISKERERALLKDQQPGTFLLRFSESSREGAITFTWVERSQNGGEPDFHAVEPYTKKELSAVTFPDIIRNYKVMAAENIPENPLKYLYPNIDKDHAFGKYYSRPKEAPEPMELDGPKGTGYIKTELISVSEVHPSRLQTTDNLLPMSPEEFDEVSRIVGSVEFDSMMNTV
As to the kind of experiment: ITC.

Assay [2] concerns the target T2, Full-length STAT1 protein (unphosphorylated) (human, UniProt P42224 1-750).
T2 construct: also called U-STAT1; pEXP-nHis-STAT1
T2 sequence (looked up): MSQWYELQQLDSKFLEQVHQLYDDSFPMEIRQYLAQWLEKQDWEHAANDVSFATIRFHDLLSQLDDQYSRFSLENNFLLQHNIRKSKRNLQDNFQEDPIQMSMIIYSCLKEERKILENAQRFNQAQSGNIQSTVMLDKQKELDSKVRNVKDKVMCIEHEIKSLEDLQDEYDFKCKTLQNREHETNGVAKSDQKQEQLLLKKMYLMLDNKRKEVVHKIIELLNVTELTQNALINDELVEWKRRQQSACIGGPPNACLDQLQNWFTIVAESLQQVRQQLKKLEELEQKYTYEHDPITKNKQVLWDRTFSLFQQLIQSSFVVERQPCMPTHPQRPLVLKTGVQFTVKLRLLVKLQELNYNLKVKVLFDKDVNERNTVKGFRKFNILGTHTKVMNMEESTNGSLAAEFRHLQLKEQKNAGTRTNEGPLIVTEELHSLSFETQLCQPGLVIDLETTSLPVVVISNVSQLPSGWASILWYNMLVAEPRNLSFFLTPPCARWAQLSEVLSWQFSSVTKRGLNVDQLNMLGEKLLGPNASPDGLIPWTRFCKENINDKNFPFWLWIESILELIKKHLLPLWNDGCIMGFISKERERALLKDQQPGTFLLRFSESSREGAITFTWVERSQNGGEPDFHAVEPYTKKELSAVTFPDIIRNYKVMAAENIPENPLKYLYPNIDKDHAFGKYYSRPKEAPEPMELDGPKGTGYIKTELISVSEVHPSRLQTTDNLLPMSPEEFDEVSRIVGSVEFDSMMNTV
In words: ITC.

Assay [3] has as its target T2, Full-length STAT1 protein …. As to the kind of experiment: fluorescence polarisation.

Where no end group is shown, it is not given here. [ ]: non-standard residue; d: D form. pY = N[C@@H](Cc1ccc(OP(=O)(O)O)cc1)C(=O)O

B1: pIFNGR1 5-mer peptide (Ac-pYDKPH-NH2) (peptide)
peptide: Ac-[pY]DKPH-NH2
SMILES: CC(=O)N[C@@H](Cc1ccc(OP(=O)(O)O)cc1)C(=O)N[C@@H](CC(=O)O)C(=O)N[C@@H](CCCCN)C(=O)N1CCC[C@H]1C(=O)N[C@@H](Cc1c[nH]cn1)C(N)=O
notes: also called pIFNGR 5-mer
Take B1: the “stoichiometry N” value in assay [1] came to 0.708.

B2: GB1-018 (natural protein)
chain: MSSKGGSSGGMWSVFIHGHDGSNKGSKTYTSGGGGMWGGGSSSGVKSGVNGGVKSGTGKI
As to B2, in assay [2], the Kd worked out at 0.291 µM and the “stoichiometry N” value amounted to 1.02. In assay [3], this molecule gave an IC50 of 1.26 µM.

B3: GB1-018^T3 (domain or fragment)
chain: MWSVFIHGHDGSNKGSK
In the case of B3, in assay [2], the Kd was over 10 µM. This molecule also had an IC50 in assay [3] of 17.8 µM.

B4: 018 phospho 21-mer peptide (Ac-MWSVFIHGHDGSNKGSKT(pY)TS-NH2) (peptide)
peptide: Ac-MWSVFIHGHDGSNKGSKT[pY]TS-NH2
Consider B4, for which the “stoichiometry N” value in assay [1] is 1.12.

B5: GB1-018^T3 (018^T2 without the C-terminal 28-TYTS-31, fused to GB1) (domain or fragment)
chain: MWSVFIHGHDGSNKGSK
As to B5, the “stoichiometry N” value in assay [1] was found to be 1.

B6: GB1-018^T2 (minimal fragment of 018, aa 11-31, fused to GB1) (domain or fragment)
chain: MWSVFIHGHDGSNKGSKTYTS
Regarding B6, the “stoichiometry N” value in assay [1] is 1.01.

B7: GB1-018^T2 (domain or fragment)
chain: MWSVFIHGHDGSNKGSKTYTS
Turning to B7, in assay [2], the Kd amounted to 0.235 µM. The molecule further displayed an IC50 in assay [3] of 0.93 µM.

B8: 018 phospho 21-mer peptide (peptide)
peptide: MWSVFIHGHDGSNKGSKTYTS
modifications: also: phospho, position not given here
Regarding B8, the Kd in assay [2] was determined as 0.174 µM. In other words, the sub-micromolar range.

B9: 018 21-mer peptide (Ac-MWSVFIHGHDGSNKGSKTYTS-NH2) (peptide)
peptide: Ac-MWSVFIHGHDGSNKGSKTYTS-NH2
B9: the “stoichiometry N” value in assay [1] was determined as 1.09.

B10: 018 21-mer peptide (peptide)
peptide: MWSVFIHGHDGSNKGSKTYTS
Regarding B10, binding in assay [2] was put at a Kd of 0.321 µM.
